In publication PMC1802081:

How the values were obtained:
Experiment in all cases: SPR; BIACORE 2000; biotinylated ligand on a streptavidin-modified CM5 chip (about 200 RU); receptor ectodomain as analyte at 1, 2, 3, 5, 10, 20 and 50 uM; HBS500 (10 mM HEPES pH 7.4, 500 mM NaCl, 3.4 mM EDTA, 0.005% P20); apparent KD from the dose dependence of equilibrium binding
BMP-2 N102D = molecular target: BMP-2 N102D
BMP-2 A86P = molecular target: BMP-2 A86P
[1] = molecular target: BMP-2 variant L100K/N102D
BMP-2 L100K = molecular target: BMP-2 L100K
BMP-2 S85R = molecular target: BMP-2 S85R
BMP-2 S85R/A86P = molecular target: BMP-2 S85R/A86P

rel. KD (against wildtype BMP-2 from E. coli with the same receptor) (BMP-2 N102D): 3.6 fold
rel. KD (against wildtype BMP-2 from E. coli with the same receptor) (BMP-2 A86P): 1.5 fold
rel. KD (against wildtype BMP-2 from E. coli with the same receptor) [1]: 0.29 fold
rel. KD (against wildtype BMP-2 from E. coli with the same receptor) (BMP-2 L100K): 0.84 fold
rel. KD (against wildtype BMP-2 from E. coli with the same receptor) (BMP-2 S85R): 0.85 fold
rel. KD (against wildtype BMP-2 from E. coli with the same receptor) (BMP-2 S85R/A86P): 1.3 fold
Substance: ActR-II receptor ectodomain (from UniProt P27037 20-135)
